Laboratory results reported in patent publication US7078233.

Target: T1, 6-methylsalicylic acid synthase (6-MSAS) from Penicillium patulum, P22367
T1 chain: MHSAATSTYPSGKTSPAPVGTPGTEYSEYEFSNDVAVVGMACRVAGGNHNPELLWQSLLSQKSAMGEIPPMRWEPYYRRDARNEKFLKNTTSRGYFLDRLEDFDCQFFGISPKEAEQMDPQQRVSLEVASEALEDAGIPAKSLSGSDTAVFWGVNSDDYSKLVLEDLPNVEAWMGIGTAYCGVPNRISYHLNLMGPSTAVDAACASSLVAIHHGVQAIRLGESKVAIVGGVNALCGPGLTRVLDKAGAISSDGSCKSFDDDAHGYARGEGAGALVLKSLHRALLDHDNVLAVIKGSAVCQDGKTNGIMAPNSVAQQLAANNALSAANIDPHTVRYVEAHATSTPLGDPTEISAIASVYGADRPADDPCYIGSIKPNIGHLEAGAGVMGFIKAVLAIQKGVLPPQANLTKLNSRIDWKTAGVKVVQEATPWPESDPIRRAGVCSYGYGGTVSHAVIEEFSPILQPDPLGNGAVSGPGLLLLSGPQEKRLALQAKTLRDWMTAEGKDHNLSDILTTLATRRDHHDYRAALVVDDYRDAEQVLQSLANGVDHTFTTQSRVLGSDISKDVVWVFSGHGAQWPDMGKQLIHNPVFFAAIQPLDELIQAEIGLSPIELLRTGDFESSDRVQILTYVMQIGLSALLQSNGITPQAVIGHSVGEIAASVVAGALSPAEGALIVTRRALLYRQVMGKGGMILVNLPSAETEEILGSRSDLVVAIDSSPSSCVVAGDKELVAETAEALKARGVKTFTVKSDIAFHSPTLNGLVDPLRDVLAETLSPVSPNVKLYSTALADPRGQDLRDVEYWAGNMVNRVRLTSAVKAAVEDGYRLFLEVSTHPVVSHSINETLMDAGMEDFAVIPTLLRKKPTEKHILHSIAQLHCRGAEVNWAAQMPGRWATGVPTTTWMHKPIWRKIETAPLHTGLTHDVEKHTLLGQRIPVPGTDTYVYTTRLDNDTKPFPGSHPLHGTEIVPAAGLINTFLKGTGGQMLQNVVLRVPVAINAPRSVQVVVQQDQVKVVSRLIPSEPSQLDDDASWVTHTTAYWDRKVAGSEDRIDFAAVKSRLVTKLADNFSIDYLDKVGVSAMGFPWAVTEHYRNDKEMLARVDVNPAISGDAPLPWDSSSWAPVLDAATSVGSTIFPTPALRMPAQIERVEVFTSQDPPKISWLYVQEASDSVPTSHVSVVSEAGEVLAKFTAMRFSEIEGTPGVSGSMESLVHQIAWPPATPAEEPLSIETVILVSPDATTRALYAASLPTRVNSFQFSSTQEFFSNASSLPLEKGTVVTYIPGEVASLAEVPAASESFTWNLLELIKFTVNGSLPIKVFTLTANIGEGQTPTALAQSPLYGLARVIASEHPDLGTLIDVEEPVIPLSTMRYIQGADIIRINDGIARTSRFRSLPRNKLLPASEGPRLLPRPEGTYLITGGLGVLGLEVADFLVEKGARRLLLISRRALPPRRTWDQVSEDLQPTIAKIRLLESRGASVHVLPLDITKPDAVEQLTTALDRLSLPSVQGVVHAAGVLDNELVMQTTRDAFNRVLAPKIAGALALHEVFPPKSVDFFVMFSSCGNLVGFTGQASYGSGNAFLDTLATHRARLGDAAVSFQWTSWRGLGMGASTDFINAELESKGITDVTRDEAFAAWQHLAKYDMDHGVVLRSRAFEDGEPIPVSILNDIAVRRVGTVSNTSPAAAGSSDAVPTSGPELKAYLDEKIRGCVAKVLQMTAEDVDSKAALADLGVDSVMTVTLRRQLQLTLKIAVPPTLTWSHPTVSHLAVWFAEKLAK

B1: Bacillus subtilis surfactin holo ACP synthase (sfp) (protein)
chain: MKIYGIYMDRPLSQEENERFMSFISPEKREKCRRFYHKEDAHRTLLGDVLVRSVISRQYQLDKSDIRFSTQEYGKPCIPDLPDAHFNISHSGRWVICAFDSQPIGIDIEKTKPISLEIAKRFFSKTEYSDLLAKDKDEQTDYFYHLWSMKESFIKQEGKGLSLPLDSFSVRLHQDGQVSIELPDSHSPCYIKTYEVDPGYKMAVCAAHPDFPEDITMVSYEELL
radioactivity from labeled beta-alanine in the 190 kD 6-MSAS band on SDS-PAGE, E. coli SJ16 cotransformed with plasmids 108 (sfp) and 109 (6-MSAS): a detectable amount of radioactivity was found in the 190 kD 6-MSAS band
